Measured values as given in patent US20040023235A1 (WISTAR INSTITUTE OF ANATOMY AND BIOLOGY, published 2004).
Each block holds one binder with its values, some of them ahead of it.

Biological target: T1, endogenous 53Bp1 (human p53-binding protein) from U2OS nuclear extracts (human, UniProt Q12888 1-1972)
T1 construct: Endogenous protein in nuclear extracts
Test: co-immunoprecipitation from U2OS nuclear extracts, western blot
Procedure: Nuclear extracts from mock treated U20S cells or cells exposed to 1 or 8 Gy gamma irradiation were prepared as described by Waterman et al, 1998 Nature Genet., 19:175-178. Endogenous 53BP1, Mre11, or p95/NBS were immunoprecipitated by binding 1 μg/reaction of monoclonal anti-53BP1, or 1 μg/reaction purified Mre11 or p95/NBS antisera (Calbiochem) in 1× IP buffer [25 mM Hepes (pH 7.4)/100 mM NaCl/5 mM MgCl₂/100 mM EDTA/0.2 mg/ml BSA/0.1% Tween-20] to protein-G sepharose beads (Amersham) for 1 hour. After washing three times with 1× IP buffer, 100 μg nuclear extract was added and proteins allowed to bind for 1 hour at 4° C. The beads were washed and the proteins resolved on 6% SDS-PAGE, transferred to PVDF membrane and were visualized by western blot using the antibodies described in Part A above.

T1 sequence (Q12888 whole entry): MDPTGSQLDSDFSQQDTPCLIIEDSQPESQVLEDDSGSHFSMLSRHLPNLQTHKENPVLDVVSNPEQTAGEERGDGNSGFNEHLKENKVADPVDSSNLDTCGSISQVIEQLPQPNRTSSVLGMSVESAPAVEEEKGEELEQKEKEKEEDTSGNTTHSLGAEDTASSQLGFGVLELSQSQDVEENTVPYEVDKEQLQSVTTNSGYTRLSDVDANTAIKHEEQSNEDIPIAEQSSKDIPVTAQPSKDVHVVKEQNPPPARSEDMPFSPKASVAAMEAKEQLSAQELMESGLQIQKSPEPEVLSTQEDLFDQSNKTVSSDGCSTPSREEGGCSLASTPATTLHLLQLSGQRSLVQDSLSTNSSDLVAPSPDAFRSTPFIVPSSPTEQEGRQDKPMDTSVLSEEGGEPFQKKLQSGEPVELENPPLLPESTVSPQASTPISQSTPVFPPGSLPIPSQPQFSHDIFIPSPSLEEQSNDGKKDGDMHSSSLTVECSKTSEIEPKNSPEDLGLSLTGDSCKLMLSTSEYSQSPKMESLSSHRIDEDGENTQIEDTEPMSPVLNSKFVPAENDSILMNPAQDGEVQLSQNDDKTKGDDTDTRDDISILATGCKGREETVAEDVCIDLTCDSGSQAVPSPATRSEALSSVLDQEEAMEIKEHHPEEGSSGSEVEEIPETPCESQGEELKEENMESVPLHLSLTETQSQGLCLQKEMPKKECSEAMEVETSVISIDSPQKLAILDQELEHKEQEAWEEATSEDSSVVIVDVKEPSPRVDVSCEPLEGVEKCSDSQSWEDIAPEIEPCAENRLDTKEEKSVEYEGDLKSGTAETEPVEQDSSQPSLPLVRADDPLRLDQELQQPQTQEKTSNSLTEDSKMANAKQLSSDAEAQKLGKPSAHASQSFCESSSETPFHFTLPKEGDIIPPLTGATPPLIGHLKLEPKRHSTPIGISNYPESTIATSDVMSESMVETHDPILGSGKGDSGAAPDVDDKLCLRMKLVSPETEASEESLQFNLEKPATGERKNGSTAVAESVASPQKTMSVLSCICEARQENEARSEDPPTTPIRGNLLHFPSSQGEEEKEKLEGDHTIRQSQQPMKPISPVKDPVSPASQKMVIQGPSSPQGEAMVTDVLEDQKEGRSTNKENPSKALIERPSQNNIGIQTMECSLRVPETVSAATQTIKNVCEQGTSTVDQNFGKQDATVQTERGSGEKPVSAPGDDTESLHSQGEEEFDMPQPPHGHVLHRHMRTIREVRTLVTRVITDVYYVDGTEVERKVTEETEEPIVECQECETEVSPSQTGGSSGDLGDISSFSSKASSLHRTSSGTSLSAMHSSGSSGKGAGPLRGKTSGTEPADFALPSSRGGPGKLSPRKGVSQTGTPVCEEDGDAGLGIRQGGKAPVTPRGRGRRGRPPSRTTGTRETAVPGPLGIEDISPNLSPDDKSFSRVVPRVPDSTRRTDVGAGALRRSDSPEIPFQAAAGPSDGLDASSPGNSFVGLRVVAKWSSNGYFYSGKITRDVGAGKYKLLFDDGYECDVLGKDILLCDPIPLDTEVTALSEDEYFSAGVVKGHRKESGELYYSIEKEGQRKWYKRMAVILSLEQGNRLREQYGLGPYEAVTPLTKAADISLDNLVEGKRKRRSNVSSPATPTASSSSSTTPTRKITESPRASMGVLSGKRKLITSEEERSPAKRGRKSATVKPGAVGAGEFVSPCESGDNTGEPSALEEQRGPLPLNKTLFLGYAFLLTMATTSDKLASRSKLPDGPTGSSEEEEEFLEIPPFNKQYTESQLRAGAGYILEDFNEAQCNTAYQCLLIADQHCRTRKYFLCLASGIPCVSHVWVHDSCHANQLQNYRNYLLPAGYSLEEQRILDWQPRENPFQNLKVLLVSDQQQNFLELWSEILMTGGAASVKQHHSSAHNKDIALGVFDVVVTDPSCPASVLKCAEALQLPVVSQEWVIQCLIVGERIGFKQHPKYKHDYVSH

binding result: no binding
B1: Rad50 (other, UniProt Q92878 1-1312, looked up)
chain: MSRIEKMSILGVRSFGIEDKDKQIITFFSPLTILVGPNGAGKTTIIECLKYICTGDFPPGTKGNTFVHDPKVAQETDVRAQIRLQFRDVNGELIAVQRSMVCTQKSKKTEFKTLEGVITRTKHGEKVSLSSKCAEIDREMISSLGVSKAVLNNVIFCHQEDSNWPLSEGKALKQKFDEIFSATRYIKALETLRQVRQTQGQKVKEYQMELKYLKQYKEKACEIRDQITSKEAQLTSSKEIVKSYENELDPLKNRLKEIEHNLSKIMKLDNEIKALDSRKKQMEKDNSELEEKMEKVFQGTDEQLNDLYHNHQRTVREKERKLVDCHRELEKLNKESRLLNQEKSELLVEQGRLQLQADRHQEHIRARDSLIQSLATQLELDGFERGPFSERQIKNFHKLVRERQEGEAKTANQLMNDFAEKETLKQKQIDEIRDKKTGLGRIIELKSEILSKKQNELKNVKYELQQLEGSSDRILELDQELIKAERELSKAEKNSNVETLKMEVISLQNEKADLDRTLRKLDQEMEQLNHHTTTRTQMEMLTKDKADKDEQIRKIKSRHSDELTSLLGYFPNKKQLEDWLHSKSKEINQTRDRLAKLNKELASSEQNKNHINNELKRKEEQLSSYEDKLFDVCGSQDFESDLDRLKEEIEKSSKQRAMLAGATAVYSQFITQLTDENQSCCPVCQRVFQTEAELQEVISDLQSKLRLAPDKLKSTESELKKKEKRRDEMLGLVPMRQSIIDLKEKEIPELRNKLQNVNRDIQRLKNDIEEQETLLGTIMPEEESAKVCLTDVTIMERFQMELKDVERKIAQQAAKLQGIDLDRTVQQVNQEKQEKQHKLDTVSSKIELNRKLIQDQQEQIQHLKSTTNELKSEKLQISTNLQRRQQLEEQTVELSTEVQSLYREIKDAKEQVSPLETTLEKFQQEKEELINKKNTSNKIAQDKLNDIKEKVKNIHGYMKDIENYIQDGKDDYKKQKETELNKVIAQLSECEKHKEKINEDMRLMRQDIDTQKIQERWLQDNLTLRKRNEELKEVEEERKQHLKEMGQMQVLQMKSEHQKLEENIDNIKRNHNLALGRQKGYEEEIIHFKKELREPQFRDAEEKYREMMIVMRTTELVNKDLDIYYKTLDQAIMKFHSMKMEEINKIIRDLWRSTYRGQDIEYIEIRSDADENVSASDKRRNYNYRVVMLKGDTALDMRGRCSAGQKVLASLIIRLALAETFCLNCGIIALDEPTTNLDRENIESLAHALVEIIKSRSQQRNFQLLVITHDEDFVELLGRSEYVEKFYRIKKNIDQCSEIVKCSVSSLGFNVH
notes: Member of the Mre11/Rad50/NBS complex

binding result: no binding
B2: Mre11 (other, UniProt P49959 2-708, looked up)
chain: STADALDDENTFKILVATDIHLGFMEKDAVRGNDTFVTLDEILRLAQENEVDFILLGGDLFHENKPSRKTLHTCLELLRKYCMGDRPVQFEILSDQSVNFGFSKFPWVNYQDGNLNISIPVFSIHGNHDDPTGADALCALDILSCAGFVNHFGRSMSVEKIDISPVLLQKGSTKIALYGLGSIPDERLYRMFVNKKVTMLRPKEDENSWFNLFVIHQNRSKHGSTNFIPEQFLDDFIDLVIWGHEHECKIAPTKNEQQLFYISQPGSSVVTSLSPGEAVKKHVGLLRIKGRKMNMHKIPLHTVRQFFMEDIVLANHPDIFNPDNPKVTQAIQSFCLEKIEEMLENAERERLGNSHQPEKPLVRLRVDYSGGFEPFSVLRFSQKFVDRVANPKDIIHFFRHREQKEKTGEEINFGKLITKPSEGTTLRVEDLVKQYFQTAEKNVQLSLLTERGMGEAVQEFVDKEEKDAIEELVKYQLEKTQRFLKERHIDALEDKIDEEVRRFRETRQKNTNEEDDEVREAMTRARALRSQSEESASAFSADDLMSIDLAEQMANDSDDSISAATNKGRGRGRGRRGGRGQNSASRGGSQRGRADTGLETSTRSRNSKTAVSASRNMSIIDAFKSTRQQPSRNVTTKNYSEVIEVDESDVEEDIFPTTSKTDQRWSSTSSSKIMSQSQVSKGVDFESSEDDDDDPFMNTSSLRRNRR
notes: as for B1
